From the nanobody polyreactivity screen of Harvey et al. (2022)

experiment: yeast display, Sf9 membrane polyspecificity reagent, FACS + sequencing; frameworks hold sequencing errors
Method in brief: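 Synthetic nanobody libraries on Saccharomyces cerevisiae BJ5465 were galactose-induced for 36–48 hours, stained 1 hour at 4 °C with 10% biotinylated, detergent-solubilized Sf9 membrane reagent and enriched on streptavidin microbeads. FACS then separated cells into low and high (top ~1%) gates by anti-HA (expression) and streptavidin (reagent binding) fluorescence. Genes were colony-PCR amplified, MiSeq 2 × 250 sequenced and CDR-length filtered. A clone's polyreactivity label is that of its gate of origin.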

Question: Which “polyreactivity (PSR sort gate)” value does the source give for “QVQLVESGGGLVQAGGSLRLSCAASGRTINPYGMGWYRPAPGKERELVADINSGGITNYADSVKGRFTISRDNAKNTVYLQMNSLKPEDTAVYYCNADGFIQPDDWRNFAGDYWGQGTQVTVSS” here?
Answer: low polyreactivity

Question: For “QGQLVESGGGLVQAGGSLSLSCAASRFTFQRYAMGWDRQAPGKERELVAAISVSGGRTYYADSVKGRFTISRDNAKNSVYLQMNSLKPEDTAVYYCAAEGFLGWYYYWGQGNQVTVSS”, which “polyreactivity (PSR sort gate)” value is on record?
Answer: high polyreactivity

Question: Which “polyreactivity (PSR sort gate)” value does the source give for “QVQLVESGGGLVQAGGSLRLICAASGLIFPSYAMGWYRQAPGKERELVAGINSGGSTNYADSVKGRFTISRDNAKNTVYLQMNSLKPEDTAVYYCAKDNNYYWYVSPRDYWGQGTQVTVSS” here?
Answer: low polyreactivity

Question: With “QVQLVESGGGLVQAGGSLRLSCAASGYIFSDNTMGWYRPAPGKERELVAVITSGTSTSYADSVKGRFTISRDNAKNTVYLQMNSLKPEDTAVYDCARESVTYFWYYTPEVDYWGQGTQVTVSS” as the sequence, how does the “polyreactivity (PSR sort gate)” value read?
Answer: low polyreactivity

Question: Which “polyreactivity (PSR sort gate)” value does the source give for “QVQLVESGGGLVQAGGSLPLSCAASGSTFKQNVMGWYIQAPGKERELVAAITSNDDRTYYADSVKGRFTISRDNAKNTFYLQMNSLKPEDTAVYYCAVESLRDVFEYDYWGQGTQVTVSS” here?
Answer: low polyreactivity

Question: Which “polyreactivity (PSR sort gate)” value does the source give for “QVQLVESGGGLVQAGGSLRLSCAASGSTFPVYVMGWYRPAPGKERELVAAITRSGGSTYYADSVKGRFTISRDNAKNTVYLQMNSLKPEDTAVYYCNKDVWDGYDWPEFDYWGQGTQVTVSS” here?
Answer: low polyreactivity

Question: With “QVQLVESGGGLVQAGGSLRLSCAASGFTFGFYAMGWYRQAPGKERELVAAISGSGGRTYYADSVKGRFTISRDNAKNTVYLQMNSLKPEDTAVYYCAARWQRKSNGDEDYWGQGTQVTVSS” as the sequence, how does the “polyreactivity (PSR sort gate)” value read?
Answer: high polyreactivity

Question: With “QVQLVESGGGLVQAGGSLRLSCDASGSTFWYAMGWYIKAPGKEMDLVAAITARGGRTYYADSVKGRFTISRDNAKNTVYLQMNSLKPEDTAVYYCARLSYAGGQWIIGKYDYWGQGTQVTVSS” as the sequence, how does the “polyreactivity (PSR sort gate)” value read?
Answer: high polyreactivity

Question: For “QVQLVESGGGLVQAGGSLRLSCAASGFIFSNAMGWYRQAPGKERELVAAISRSGGSTYYADSVKGRFTISRDNAKNTVYLQMNSLKPEDTAVYYCGARSYPRSPVRYDYWGQGTQVTVSS”, which “polyreactivity (PSR sort gate)” value is on record?
Answer: high polyreactivity

Question: Which “polyreactivity (PSR sort gate)” value does the source give for “QVQLVESGGGLVQAGGSLRLSCAASGFTFYGYAMGWYRQAPGKERELVAAISRSGVRTYYADSVKGRFTISRDNAKNTVYLQMNSLKPEDTAVYYCNAVPRYGYYWGQGTQVTVSS” here?
Answer: high polyreactivity

Question: With “QVQLVESGGGLVQAGGSLRLSCAASGRIFTGYALGWYRQAPGKERELVAAISRGGSTNYADSVKGRFTISRDNAKNTVYLQMNSLKPEDTAVYYCAAGVHWDRGDYWGQGTQVTVSS” as the sequence, how does the “polyreactivity (PSR sort gate)” value read?
Answer: low polyreactivity

Question: For “QVQLVESVGGLVQAGGSLRLTCAASGRIFEINTMGWYRQAPGKERELVAAISRGGGSTYYADSVKGRFTISRDNAKNTVYLQMNSLKPEDTAVYYCAAASYYVEGDYWGQGTQVTVSS”, which “polyreactivity (PSR sort gate)” value is on record?
Answer: low polyreactivity

Question: With “QVQLVESGGGLVQAGGSLRISCAASGNTFTRNTMGWYRQAPGKERELVASISLSGASTYYADSVKGRFTISRDNAKNTVYLQMNSLKPEDTAVYYCAARSRQDLEYDYWGQGTQVTVSS” as the sequence, how does the “polyreactivity (PSR sort gate)” value read?
Answer: high polyreactivity

Question: For “QVHLVESGGGLVQAGGSLRLICAASGFTFDFYAMGWYRQAPGKERELVAAISKNDGTTYYADSVKGRFTISRDNAKNTVYLQMYSLKPEDTAVYYCAAESGYPVYTYVSSGDYWGQGTQVTVSS”, which “polyreactivity (PSR sort gate)” value is on record?
Answer: low polyreactivity

Question: For “QVQLVESGGGLVQAGGSLRLSCAASGSTFYYYAMGWYRPAPGKERELVAAISSRGGSTFYADSVKGRFTISRDNAKNTVYLQMNSLKPEDTAVYYCNAYRYDRSQYYPYDYWGQGTQVTVSS”, which “polyreactivity (PSR sort gate)” value is on record?
Answer: high polyreactivity

Question: Which “polyreactivity (PSR sort gate)” value does the source give for “QVQLVESGGGLVQAGGSLRLSCAASGLIFPDYDMGWYIQAPGKERELVAAISIGGVSTYYADSVKGRFTISRDNAKNTVYLQMNSLKPEDTAVYYCAAYYSYVYYVGDSDDYWGQGTQVTVSS” here?
Answer: low polyreactivity

Question: For “QVQLGESGGGLVQAGGSLRLSCAASGSTFGFYAMGWYRQAPGKERELVAAISGRGGSTYYADSVKGRFTISRDNAKNTVYLQMNSLKPEDTAVYYCAKEFKYWGYPYDYWGQGTQVTVSS”, which “polyreactivity (PSR sort gate)” value is on record?
Answer: low polyreactivity

Question: With “QFQLEESGGGLVQAGGSLRLSCAASGITFRRYTMGWYRQAPGKERELVATISLSDGNTYYADSVKGRFTISRDNAKNTVYYQMNSLKPEDTAVYYCNARHTWHQTYDYWGQGTQVTVSS” as the sequence, how does the “polyreactivity (PSR sort gate)” value read?
Answer: low polyreactivity

Question: Which “polyreactivity (PSR sort gate)” value does the source give for “QVQLVESGGGLVQAGGSLRLSCAASGFIFYKYAMGWYRQAPRKEREFVASISGSGGRTYYADSVKGRFTISRDNAKNTVYLQMNSLKPEDTAVYYCAVDLLRRGFPTVVTTYDYWGQGTQVTVSS” here?
Answer: high polyreactivity

Question: Which “polyreactivity (PSR sort gate)” value does the source give for “QVQLVESGGGLVQAGGSLRLSCPASGINFIFYAMAWYREAPGKERELVATIRRSGSTYYADSVKGRFTISRDNAKNTVYLQMNSLKPEDTAVYYCNARYPYSYGDYWGQGTQVTVSS” here?
Answer: high polyreactivity

Question: For “QVQLVESGGGLVQAGGSLRLSCAASGFIFVYYAMGWYRQAPGKERELVAAISSRGGSTYYADSVKRRFTISRDNAKNTVYLQMNSLKPEDTAVYYCAARPSSRRYGTIMDYWGQGTQVTVSS”, which “polyreactivity (PSR sort gate)” value is on record?
Answer: high polyreactivity

Question: Which “polyreactivity (PSR sort gate)” value does the source give for “QVQLVESGGGLVQAGGSLRLSCAASGFIFQRYAMGWYRQAPGKERELVAAISWSGGITYYADSVKGRFTISRDNAKNTVYLQMNSLKPEDTAVYYCAAGLAVGDYYWGQGTQVTVSS” here?
Answer: high polyreactivity

Question: Which “polyreactivity (PSR sort gate)” value does the source give for “QVQLVESGGGLVQAGGSLRLSCAASGRTFIYYAMGWYRQAPGKERELVAAISRSGGSTYYADSVKGRFTISRDNAKNTVYLQMNSLKPEDTAVYYCAAADPLGYEYDSWGQGTQVTVSS” here?
Answer: high polyreactivity

Question: With “QVQLVESGGGLVQAGGSLRLSCAASGSIFKYYAMGWYRQAPGKERELVASITSGGSTNYADSVKGRFTISRDNAKNTVYLQMNSLKPEDTAVYYCAADGVRVPRREYDYWGQGTQVTVSS” as the sequence, how does the “polyreactivity (PSR sort gate)” value read?
Answer: low polyreactivity

Question: For “QVQLVESGGGLVQAGGSLRLSCAASGRTFYYNGMAWYRQAPGKERELVAAITSGGTTTYADSVKGLFTISRDNAKNSVYLQMNSVKPEETAVYYSNADYWAVNYDYCGQGTQVTVSS”, which “polyreactivity (PSR sort gate)” value is on record?
Answer: low polyreactivity

Question: With “QVQLVESGGGLVQAGGSLRLSCAASGSIFWFKAMGWYRQAPGKERELVATIRYSGGSTYYADSVKGRFTISRDNEKNTVYLQRNSMKPEDTAVYYCAADAVGDGHNDYWGLGTQVTVSS” as the sequence, how does the “polyreactivity (PSR sort gate)” value read?
Answer: high polyreactivity

Question: Which “polyreactivity (PSR sort gate)” value does the source give for “QVQLVESGGGLVQSGGSLRLSCAASGRTFGGYAMGWYRQAPGKERELVAAIRRSGGSTYYADSVKGLFTISRDNAKNTFYLQMKSMKPEDTAVYYCAAYGIYNVRIYYLGQGTQVTVSS” here?
Answer: high polyreactivity

Question: With “QVQLVESGGGLVQAGGSLRLSCAASGSIFVYNAMGWYRQAPGKERELVAGITFIGGSTYYADSVKGRFTISRDNPKNTVYLQMNSLKPEDTAVYYCNADVAPGIFYGYDSWGQGTQVTVSS” as the sequence, how does the “polyreactivity (PSR sort gate)” value read?
Answer: low polyreactivity

Question: For “QVQLVESGGGLVQAGGSLRLSCAASGSIITWYTMGWYRQAPGKERELVAAISWSGGRTYYADSVKGRFTISRDNAKNTVYLQMNSLKPEDTAVYYCAASAYGRPPFDYWGQGTQVTVSS”, which “polyreactivity (PSR sort gate)” value is on record?
Answer: high polyreactivity

Question: For “QVQLVESGGGLVQAGGSLRLSCAASGFIYGKNAMGWYRQAPGKERELVAAISQRGGSTYYADSVKGRFTISRDTAKNTVYLQMNSLKPEDTAVYYCAADGRRVVARYDYWGQVTQVTVSS”, which “polyreactivity (PSR sort gate)” value is on record?
Answer: high polyreactivity

Question: With “QVQLVESGVGLVQAGGSLRLICAASGFIFFGNAMGWYRQAPGKERQLVAVITWSGGSTYADSVKGRFTISRDNAKNTVYLQMNSLKPEDTAVYYCAADQQTWWQYSLINEYDYWGQGTQVTVSS” as the sequence, how does the “polyreactivity (PSR sort gate)” value read?
Answer: low polyreactivity

Question: For “QVQLVESGGGLVQAGGSLRLSCAASHANAIGWYRQAPGKERELVAAITYRGGSTYYADSVKGRFTISRDNAKNTVYLQMNSLKPEDTAVYYCNTDVYLYVYDFGYNYWGQGTQVTVSS”, which “polyreactivity (PSR sort gate)” value is on record?
Answer: low polyreactivity

Question: For “QVQLVESGGGLVQAGGSLRLSCAASGRTFLYNARGWSRQAPGKEMELVAAITKSGGSKYYADSVKGRFTISRDNAKNTVYLQMNSLKPEDTAVYYCAAARRYYTYYREDYYYWGQGTQVTVSS”, which “polyreactivity (PSR sort gate)” value is on record?
Answer: high polyreactivity

Question: Which “polyreactivity (PSR sort gate)” value does the source give for “QVQLVESGGGLVQAGGSLRLSCAASGFTFRQYAMGWYRQAPGKEREFFADITFSGDNTRYADSVKGRFTISRDNAKNTVYLQMNSLKPEDTGVYYCNADYLVSWLQFDYWGQGTQVTVSS” here?
Answer: low polyreactivity

Question: Which “polyreactivity (PSR sort gate)” value does the source give for “QVQLVESWGGLVQAGGSLRLSCAASGLIFNYYAMGWYRQAPGKERELVAAITTGGGTYYADSVKGRFTISRDNAKNTVYLQMNSLKPEDTAVYYCAAVWGNRSRYPGHYYWGQGTQVTVSS” here?
Answer: high polyreactivity

Question: With “QVQLVESGGGLVQAGGSLRLSCAASGSLIRRYAMGWYRQAPGKEREFVAAISGRGGRTYYADSVKGRFTISRDNAKNTVYLQMNSLKPEDTAVYYCNAAFVTAEMDYWGQGTQVTVSS” as the sequence, how does the “polyreactivity (PSR sort gate)” value read?
Answer: high polyreactivity

Question: For “QVQRVESGVGLVQAGGSLRLSCAASGLTFLWYAMGWYRQAPGKERELVAAITSGGRTKYADSVKGRFTISRDNAKNTVYLQMNSLKPEDTAVYYCAAYPQWWGYDYWGQGTQVTVSS”, which “polyreactivity (PSR sort gate)” value is on record?
Answer: high polyreactivity

Question: For “QVQHVESGGGLVQAGGSLRLSCAASGSILGGNAMGWYRQAPGKERELVADISGSGDSTYYADSVKGRFTISRDNAKNTVYLQMNSLKPEETAVYYCAVDYDSYWYGTYVNEYDYWGQGTQVTVSS”, which “polyreactivity (PSR sort gate)” value is on record?
Answer: low polyreactivity

Question: Which “polyreactivity (PSR sort gate)” value does the source give for “QVQLVESGGGLVQAGGSLRLSCAASGRIFTSNAMGWYRQAPGKERELVAAISSSGTRTYYADSVKGRFTISRDNAKNTVYLQMNSHKPEDTAVYYCASGAPSLKYEYWGQGTQVTVSS” here?
Answer: high polyreactivity

Question: With “QVQLVESGGGLVQAGGSLRLSCAASGLIFSYYAMGWYRQAPGKERELVAGITRSGASTYADSVKGRFTISRDNAKNTVYLQMNSLKPEDTAVYYCAADWHYLGWFWQYSKYDYWGQGTQVTVSS” as the sequence, how does the “polyreactivity (PSR sort gate)” value read?
Answer: high polyreactivity

Question: For “QVQLVESGGALVQAGGSLRLSCAASGSTSVDYTMGWYRQAPGNDKDLVAAIDYNGDSTYYADSEKGRFTISRDNAKNTFYLQMNSLKPEDTAVYYCAADVWTLDPEVYDYWGPGTQVTVSS”, which “polyreactivity (PSR sort gate)” value is on record?
Answer: low polyreactivity

Question: With “QVQLVESGGGLVQAGGSLRLICAASGRIFGDNAMGWYRQAPGKERELVAGIRWRADRTYYADSVKGRFTISRDNAKNTFYLQMNSLKPEDTAVYYCAARGGGYYDFDYWGQGTQVTVSS” as the sequence, how does the “polyreactivity (PSR sort gate)” value read?
Answer: low polyreactivity

Question: With “QVQLVESGGGLVQAGGSLRLSCAASGRIFAYYAMEWYRQAPGKERELVAAITRSGARTYYADSVKGRFTISRDNAKNSVYLQMNSLKPEDTAVYYFAAEGVRIGTRYDYWGQGTQVTVSS” as the sequence, how does the “polyreactivity (PSR sort gate)” value read?
Answer: high polyreactivity
